What was measured:
[1] = target: human TIGIT on cells (Jurkat-TIGIT cells; human T cells, NK cells and other blood cells) (human) (UniProt Q495A1); assay: flow cytometry of human PBMCs, PE anti-TIGIT (clone MBSA43 per paragraph 220) against A488 anti-CD56; CD56+ TIGIT+ gate, unit not given; left panel (first of 3 donors)
[2] = target: human TIGIT on cells (Jurkat-TIGIT cells; human T cells, NK cells and other blood cells) (human) (UniProt Q495A1); assay: flow cytometry of human PBMCs, PE anti-TIGIT (clone MBSA43 per paragraph 220) against A488 anti-CD56; CD56+ TIGIT+ gate, unit not given; right panel (third of 3 donors)
[3] = target: human TIGIT on cells (Jurkat-TIGIT cells; human T cells, NK cells and other blood cells) (human) (UniProt Q495A1); assay: flow cytometry of human PBMCs, PE anti-TIGIT (clone MBSA43 per paragraph 220) against A488 anti-CD56; CD56+ TIGIT+ gate, unit not given; middle panel (second of 3 donors)
[4] = target: CD155 on K562 cells (human) (UniProt P15151); assay: flow cytometry of K562 cells stained with APC-labelled anti-CD155 (clone SKII.4 per paragraph 220); percent of cells in the marker gate from about 2x10^1 to 10^4

Sequence of human TIGIT on cells (Jurkat-TIGIT cells; human T cells, NK cells and other blood cells) (human) (Q495A1 22-244): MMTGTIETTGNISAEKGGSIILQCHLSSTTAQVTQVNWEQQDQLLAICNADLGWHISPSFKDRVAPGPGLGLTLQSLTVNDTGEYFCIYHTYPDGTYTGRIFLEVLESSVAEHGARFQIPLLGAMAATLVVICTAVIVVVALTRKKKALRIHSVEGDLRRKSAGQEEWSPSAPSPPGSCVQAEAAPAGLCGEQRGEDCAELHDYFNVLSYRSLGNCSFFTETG

Row | TIGIT+ NK Cells [1] | TIGIT+ NK Cells [2] | TIGIT+ NK Cells [3] | % CD155 [4] [%] | Substance
1 | 4.84 | 5.47 | 8.03 | – | anti-human TIGIT antibody clone MBSA43 (commercial; eBiosciences / BioLegend)
2 | – | – | – | 98.5 | CD155 - APC (antibody)

Source: US20170281764A1
